What was measured:
[1] = target: trimerization domain (TD) of human collagen XVIII, XVIII(TD) (human) (UniProt P39060); experiment: AUC
[2] = target: trimerization domain (TD) of human collagen XVIII, XVIII(TD) (human) (UniProt P39060); experiment: cross-linking
[3] = target: trimerization domain of human type XV collagen, XV(TD) (human); experiment: SEC

Row | Substance | stoichiometry N [1] | stoichiometry N [2] | stoichiometry N [3]
1 | trimerization domain (TD) of human collagen XVIII, XVIII(TD) (from UniProt P39060 1442-1496) (domain or fragment) | 2.98 | 3 | –
2 | trimerization domain of human type XV collagen, XV(TD) (domain or fragment) | – | – | 3

From article PMC3048825
